Experimental data: patent publication US20160177307

What was measured:
[1] = biological target: PDGF-BB (platelet-derived growth factor BB) (Homo sapiens) (UniProt P01127); assay: filter
[2] = tested on: T1, VEGF-165 (Homo sapiens), P15692-4; assay: filter
T1 sequence: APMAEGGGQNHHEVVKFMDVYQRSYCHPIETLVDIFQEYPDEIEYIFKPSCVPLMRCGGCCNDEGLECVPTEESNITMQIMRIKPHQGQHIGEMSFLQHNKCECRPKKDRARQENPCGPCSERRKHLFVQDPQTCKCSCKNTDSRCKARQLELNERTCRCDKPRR

[3] = tested on: T2, VEGF-121 (Homo sapiens), P15692-9; assay: filter
T2 sequence: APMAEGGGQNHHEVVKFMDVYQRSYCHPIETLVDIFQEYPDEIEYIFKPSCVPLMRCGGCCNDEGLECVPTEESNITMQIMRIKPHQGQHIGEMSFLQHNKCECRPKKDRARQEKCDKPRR

PDGF-AB = PDGF-AB (UniProt P04085+P01127); assay: filter
[4] = biological target: PDGF-BB (platelet-derived growth factor BB) (Homo sapiens) (UniProt P01127); assay: cell_activity
[5] = tested on: T3, VEGF-164 (Rattus norvegicus), P16612-2; assay: filter; details: P=Nap-dU
T3 sequence: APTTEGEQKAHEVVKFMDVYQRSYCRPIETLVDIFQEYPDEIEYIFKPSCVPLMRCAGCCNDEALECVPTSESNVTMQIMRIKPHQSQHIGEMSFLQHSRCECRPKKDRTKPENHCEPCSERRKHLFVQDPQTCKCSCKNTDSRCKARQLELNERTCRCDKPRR

[6] = BndU at 1,2,7,8,16,17,18,20, Heg at 5, 2'-OMe A3,A11,A21,G24
[7] = Bn-dU, Heg linker, 2'-OMe A3, A11, A19, A21, G24
[8] = Z BndU, P NapdU, 2'-OMe at superscript-1 positions, C3 spacers, three Heg linkers
[9] = Bn-dU, MBn-dU, Nap-dU, 2'-OMe, C3, 6 Heg between parts

Sequence of PDGF-BB (platelet-derived growth factor BB) (Homo sapiens) (P01127 82-190): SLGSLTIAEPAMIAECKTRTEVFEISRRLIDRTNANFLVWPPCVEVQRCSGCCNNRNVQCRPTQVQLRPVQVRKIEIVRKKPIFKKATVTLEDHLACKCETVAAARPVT
Sequence of PDGF-AB (P01127 82-190, chain 2 of 2, other chains not shown): as the sequence (P01127 82-190) above

CCGTTCAAGTGCTTTAGATTTAAATGGTTACGTTACACGCGTTTATAGC [4149-8_315]
Kd ([1]; VEGF-2Heg-PDGF, NapdU, BndU): 0.119 nM | Kd ([2]; Nap-dU, Bn-dU, C3, 2 Heg linker, 2'-OMe, VEGF): 0.086 nM | Kd ([3]; VEGF-2Heg-PDGF, NapdU, BndU): 0.758 nM | Kd (PDGF-AB; VEGF-2Heg-PDGF, NapdU, BndU): 0.123 nM

CCGTTCAAGTGCTTTAGATTTAAATGGTTACGTTACACGCGTTTATAGC [4149-8_316]
Kd ([1]; VEGF-3Heg-PDGF, NapdU, BndU): 0.0897 nM | Kd ([2]; Nap-dU, Bn-dU, C3, 3 Heg linker, 2'-OMe, VEGF): 0.157 nM | Kd ([3]; VEGF-3Heg-PDGF, NapdU, BndU): 0.5 nM | Kd (PDGF-AB; VEGF-3Heg-PDGF, NapdU, BndU): 0.137 nM

CGACAGCATGTATGCACATCT [5169-4_26]
Kd ([1]; NapdU (5-(N-naphthylmethylcarboxamide)-2'-deoxyuridine) at 9,11,13,19,21, rest DNA, SB18T, 37 C): 0.017 nM | IC50 ([4]; NapdU (5-(N-naphthylmethylcarboxamide)-2'-deoxyuridine) at 9,11,13,19,21, rest DNA, inhibition of PDGFRbeta phosphorylation): 1.6 nM

CGACAGCATGTATGCACATCT [5169-4_84]
Kd ([1]; NapdU at P, 2'-OMe 1,4,6,7,14,15,16,18,20,21): 0.0053 nM | IC50 ([4]; NapdU at P, 2'-OMe 1,4,6,7,14,15,16,18,20,21, PDGFRb phosphorylation, Hs27): 3.3 nM

CGACAGCATGTATGCACATCT [5169-4_85]
Kd ([1]; NapdU at P, 2'-OMe 1,4,6,7,11,14-18,20,21): 0.0062 nM | IC50 ([4]; NapdU at P, 2'-OMe 1,4,6,7,11,14-18,20,21, PDGFRb phosphorylation, Hs27): 7.3 nM

CGACAGCATGTATGCACATCT [5169-4_112]
Kd ([1]; NapdU at P, 2'-OMe 14,16,21): 0.0062 nM | IC50 ([4]; NapdU at 9,11,13,19, 2'-OMe G14,A16 and 2'-OMe-NapU21, inhibition of PDGFRbeta phosphorylation): 1 nM

CGTTCAAGTGCTTGTAGGATTTAAATGGA [4867-31_60]
Kd ([2]; NapdU at P): 0.61 nM | Kd ([3]; NapdU at P): 2.2 nM | Kd [5]: 1.4 nM

GCCGTTCAAGTGCTTGTAGGATTTAAATGGA [4867-31_58]
Kd ([2]; NapdU at P): 0.1 nM | Kd ([3]; NapdU at P): 0.15 nM | Kd [5]: 0.21 nM

GTTCAAGTGCTTGTAGGATTTAAATGGA [4867-31_61]
Kd ([2]; NapdU at P): 2.9 nM | Kd ([3]; NapdU at P): 33 nM | Kd [5]: 13 nM

TCAATCAGCCGTTCAAGTGCTTGTAGGATTTAAAT [4867-31_25]
Kd ([2]; NapdU at P): 26 nM | Kd ([3]; NapdU at P): 70 nM | Kd [5]: 16 nM

TCAATCAGCCGTTCAAGTGCTTGTAGGATTTAAATG [4867-31_24]
Kd ([2]; NapdU at P): 2.8 nM | Kd ([3]; NapdU at P): 36 nM | Kd [5]: 4.2 nM

TCAATCAGCCGTTCAAGTGCTTGTAGGATTTAAATGG [4867-31_23]
Kd ([2]; NapdU at P): 0.3 nM | Kd ([3]; NapdU at P): 1.3 nM | Kd [5]: 0.66 nM

TCAATCAGCCGTTCAAGTGCTTGTAGGATTTAAATGGA [4867-31_22]
Kd ([2]; NapdU at P): 0.26 nM | Kd ([3]; NapdU at P): 0.82 nM | Kd [5]: 0.54 nM

TCAGCCGTTCAAGTGCTTGTAGGATTTAAATGGA [4867-31_41]
Kd ([2]; P=Nap-dU): 0.13 nM | Kd ([3]; P=Nap-dU): 0.63 nM | Kd [5]: 0.08 nM

TCAGCCGTTCAAGTGCTTGTAGGATTTAAATGGAA [4867-31_35]
Kd ([2]; P=Nap-dU): 0.11 nM | Kd [5]: 0.05 nM

TCAGCCGTTCAAGTGCTTGTAGGATTTAAATGGAAT [4867-31_29]
Kd ([2]; P=Nap-dU): 0.13 nM | Kd ([3]; P=Nap-dU): 0.96 nM | Kd [5]: 0.08 nM

TTACGACTACGTTACACGCGTTTATAGC [4149-8_39]
Kd ([1]; BndU at 1,2,8,12,13,21,22,23,25, rest DNA, SB18T, 37 C, Table 18 gives 87.5 pM): 0.11 nM | Kd (PDGF-AB; BndU at 1,2,8,12,13,21,22,23,25, rest DNA): 0.0476 nM

TTACGTTACACGCGTTTATAGCG [4149-8_130]
Kd [1, 6]: 0.0759 nM | Kd (PDGF-AB; [6]): 0.141 nM

TTACGTTACACGCGTTTATAGCG [4149-8_273]
Kd [1, 7]: 0.0614 nM | Kd (PDGF-AB; [7]): 0.189 nM

TTACGTTACACGCGTTTATAGCGCCGTTCAAGTGCTTTAGATTTAAATG [4149-8_318]
Kd ([1]; PDGF-1Heg-VEGF, NapdU, BndU): 0.0431 nM | Kd ([2]; Bn-dU, Nap-dU, C3, 1 Heg linker, 2'-OMe, VEGF): 0.27 nM | Kd ([3]; PDGF-1Heg-VEGF, NapdU, BndU): 2.47 nM | Kd (PDGF-AB; PDGF-1Heg-VEGF, NapdU, BndU): 0.0818 nM

TTACGTTACACGCGTTTATAGCGCCGTTCAAGTGCTTTAGATTTAAATG [4149-8_319]
Kd ([1]; PDGF-2Heg-VEGF, NapdU, BndU): 0.0242 nM | Kd ([2]; Bn-dU, Nap-dU, C3, 2 Heg linker, 2'-OMe, VEGF): 0.125 nM | Kd ([3]; PDGF-2Heg-VEGF, NapdU, BndU): 1.07 nM | Kd (PDGF-AB; PDGF-2Heg-VEGF, NapdU, BndU): 0.0302 nM

TTACGTTACACGCGTTTATAGCGCCGTTCAAGTGCTTTAGATTTAAATG [4149-8_320]
Kd [1, 8]: 0.015 nM | Kd ([2]; PDGF-3Heg-VEGF, NapdU, BndU): 0.0768 nM | Kd [3, 8]: 0.422 nM | Kd (PDGF-AB; PDGF-3Heg-VEGF, NapdU, BndU): 0.0493 nM

TTACGTTACCGCGTTTATAGCGCCGTTCAAGTGCTTGTAGGATTTAAATGG [4149-8_401 (PDGF_379-HHH-VEGF_192)]
Kd ([1]; Z BndU, P NapdU, M MBndU, superscript 1 2'-OMe, C3 spacer, Heg linkers, 5'-amine, Table 20 gives 1.51E-11): 0.0056 nM | Kd ([2]; Z BndU, P NapdU, M MBndU, superscript 1 2'-OMe, C3 spacer, Heg linkers, 5'-amine, Table 20 gives 2.77E-10): 0.025 nM | Kd ([3]; Z BndU, P NapdU, M MBndU, superscript 1 2'-OMe, C3 spacer, Heg linkers, 5'-amine, Table 20 gives 3.74E-11): 0.027 nM | Kd (PDGF-AB; Z BndU, P NapdU, M MBndU, superscript 1 2'-OMe, C3 spacer, Heg linkers, 5'-amine): 0.193 nM

TTACGTTACCGCGTTTATAGCGCCGTTCAAGTGCTTGTAGGATTTAAATGG [4149-8_417]
Kd [1, 9]: 0.011 nM | Kd [2, 9]: 0.065 nM | Kd [3, 9]: 0.043 nM
